Target: A/equine/NY/49/73 H7N7 hemagglutinin (crystallization construct) (influenza A virus A/equine/NY/49/73 (H7N7))
Test: SEC

A/equine/NY/49/73 H7N7 hemagglutinin (crystallization construct) (natural protein)
stoichiometry N: 3
